One molecule from article PMC6764946, “Non-enzymatic roles of human RAD51 at stalled replication forks” can be followed below.

Series [1] concerns the target hsRAD51-WT (Homo sapiens, UniProt Q06609 1-339). The series can be described thus: fluorescence polarization; 1 mM ATP, 1 mM MgCl2, 50 uM CaCl2; apparent Kd; 25 mM Tris-HCl pH 7.8, 1 mM MgCl2, 1 mM ATP, 1 mM DTT, 50 mM NaCl (printed NaCl2), 50 uM CaCl2, 100 ug/ml BSA, 37 C, 30 min; 2.4 nM oligo, RAD51 10-1000 nM. Conditions: protein: recombinant; tags: C-terminal His6; label: 5' Alexa Fluor 488 (Methods; legend says fluorescein); single strand.

In series [2] the target is hsRAD51-II3A (Homo sapiens, UniProt Q06609 1-339, R130A;R303A;K313A). As to the kind of experiment: fluorescence polarization; 1 mM ATP, 1 mM MgCl2, 50 uM CaCl2; apparent Kd; modest binding defect; 25 mM Tris-HCl pH 7.8, 1 mM MgCl2, 1 mM ATP, 1 mM DTT, 50 mM NaCl (printed NaCl2), 50 uM CaCl2, 100 ug/ml BSA, 37 C, 30 min; 2.4 nM oligo, RAD51 10-1000 nM. As to conditions: protein: recombinant; tags: C-terminal His6; label: 5' Alexa Fluor 488 (Methods; legend says fluorescein); single strand. In general terms: In fluorescence polarisation assays a small probe gives low polarisation when free and higher when bound to something large.
Chain of hsRAD51-II3A (Q06609 whole entry R130A/R303A/K313A): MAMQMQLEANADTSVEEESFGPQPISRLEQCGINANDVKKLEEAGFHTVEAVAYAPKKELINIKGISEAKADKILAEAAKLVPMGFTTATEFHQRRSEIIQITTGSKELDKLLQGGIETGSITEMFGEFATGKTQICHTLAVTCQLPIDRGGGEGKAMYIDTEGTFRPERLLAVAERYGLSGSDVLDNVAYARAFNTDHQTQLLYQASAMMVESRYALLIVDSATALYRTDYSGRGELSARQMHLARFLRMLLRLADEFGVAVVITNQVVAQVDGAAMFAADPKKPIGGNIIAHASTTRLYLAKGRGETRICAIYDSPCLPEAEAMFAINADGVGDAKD

Chain of hsRAD51-WT (Q06609 whole entry): as the sequence (Q06609 whole entry R130A/R303A/K313A) above, with A130R, A303R, A313K counted along it

B1: 84-mer ssDNA (ssDNA)
DNA: GGTAGCGGTTGGGTGAGTGGTGGGGAGGGTCGGGAGGTGGCGTAGAAACATGATAGGAATGTGAATGAATGAAGTACAAGTAAA
Consider B1, for which the Kd was found to be 57 ± 1 nM in series [1] and 132 ± 5 nM in series [2].
